This is an account of results in PMC7058304 (PLoS ONE, 2020).

What all share (conditions): both partners purified
Test [1] deals with T1, Recombinant purified human PD-1 protein, residues Leu25-Thr168, with a C-terminal 6-His tag (human, UniProt Q15116).
T1 construct: programmed cell death protein 1 (PD-1), human, residues Leu25-Thr168; monomer; the results call it wild-type or full length PD-1 against the P35-Q167 fragment; also called PD-1-His; PD-1 His-tagged monomer; source: bought: R&D Systems; not shown: His6, C-terminal, kept
Put plainly: SPR; Biacore 8K, 3D-hydrogel chips (average of CM5 and CMD-200M); mAbs captured on goat anti-human IgG Fc; PD-1 His-tagged monomer analyte 0.4-100 nM; 25 C; HBS-EP+ pH 7.4; 1:1 Langmuir fit with mass transport; apparent. Background: SPR reads the build-up and loss of mass on a sensor chip optically.

Test [2] has as its target T1, Recombinant purified human PD-1 …. Put plainly: KinExA equilibrium; fixed mAb orientation: PD-1-His monomer titrated (0.1 pM-1.2 uM) into fixed mAb, equilibrated up to 64 h; free mAb captured on beads coated with Fc-fused PD-1; about 23 C; PBS pH 7.4 + 0.05% azide + 0.01% BSA; N-curve analysis; apparent. In general terms: In KinExA the mixture passes briefly over coated beads that capture the unbound partner.

For test [3], the target named is T2, biotinylated His-tagged PD-1 (Homo sapiens, UniProt Q15116, biotin).
T2 construct: PD-1, His-tagged, biotinylated, used in the MSD experiments; probably the R&D Systems Leu25-Thr168 protein after biotinylation
Kind of test: MSD solution equilibrium titration; 100 pM biotinylated His-tagged PD-1 titrated with mAb (top 100, 50 or 10 nM binding sites), 18 h at room temperature; free antigen captured on mAb-coated MSD plates; relative KD.

Test [4] has as its target T1, Recombinant purified human PD-1 …. Put plainly: SPR; Carterra LSA, CMD-P (flat) chip; mAbs captured on goat anti-human IgG Fc in a 384-spot array; PD-1-His analyte 0.5-1000 nM, 5 min association, 20 min dissociation; HBS-ET + 0.5 mg/ml BSA; 1:1 Langmuir fit; mean of spots; apparent.
Test [5] has the same target. Kind of test: SPR; Biacore 8K, flat chips (average of C1 and CMD-P); mAbs captured on goat anti-human IgG Fc; PD-1 His-tagged monomer analyte 0.4-100 nM; 25 C; HBS-EP+ pH 7.4; 1:1 Langmuir fit with mass transport; apparent.
Test [6] addresses T3, Recombinant purified human PD-1 protein, residues Leu25-Thr168, with a C-terminal 6-His tag (Homo sapiens, UniProt Q15116).
T3 construct: human PD-1 (programmed cell death protein 1), residues Leu25-Thr168; monomer; used as analyte in SPR and as titrant in KinExA; also called PD-1-His; PD-1-His monomer; source: bought: R&D Systems (catalog# 8986-PD, lot# DDJM0417041); not shown: His6, C-terminal, kept
Put plainly: SPR; Carterra LSA, CMD-P (flat) chip; mAb captured by amine-coupled goat anti-human IgG Fc, PD-1-His as analyte 0.5-1000 nM, 5 min association, 20 min dissociation; run buffer with 0.5 mg/ml BSA; global 1:1 Langmuir fit; mean (stdev) of 8-12 spots per mAb; KD deduced from kd/ka; apparent.
T3 sequence (Q15116 25-168): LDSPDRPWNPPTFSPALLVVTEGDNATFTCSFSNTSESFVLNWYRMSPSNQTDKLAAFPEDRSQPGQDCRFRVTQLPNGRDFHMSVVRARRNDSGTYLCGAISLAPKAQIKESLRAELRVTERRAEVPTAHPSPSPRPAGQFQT

Test [7] has as its target T3, Recombinant purified human PD-1 …. Kind of test: KinExA; 'Kinetics, Direct' method, solution phase: mAb mixed with PD-1, free mAb probed repeatedly pre-equilibrium on PD-1-coupled PMMA beads, Alexa647 goat anti-human IgG detection; ka fitted (best fit, 95% CI), kd calculated from ka and KD.
Test [8] addresses T4, Recombinant purified human PD-1 protein, residues Leu25-Thr168, with a C-terminal 6-His tag (Homo sapiens, UniProt Q15116).
T4 construct: programmed cell death protein 1 (PD-1), human, residues Leu25-Thr168; also called programmed cell death protein 1; PD-1-His monomer; source: bought: R&D Systems (catalog# 8986-PD, lot# DDJM0417041)
Kind of test: SPR; Biacore 8K, C1 chip (flat); mAb captured on amine-coupled goat anti-human IgG Fc, PD-1-His monomer as analyte (100 nM top, 3-fold dilutions), 1200 s dissociation; 25 C, HBS-EP+ pH 7.4; 1:1 Langmuir fit, apparent constants; 8 mAbs measured in two independent experiments.
T4 sequence (Q15116 25-168): as above

The target of test [9] is T4, Recombinant purified human PD-1 …. Kind of test: SPR; Biacore 8K, CM5 chip (3D-hydrogel); mAb captured on amine-coupled goat anti-human IgG Fc, PD-1-His monomer as analyte (100 nM top, 3-fold dilutions), 1200 s dissociation; 25 C, HBS-EP+ pH 7.4; 1:1 Langmuir fit, apparent constants.
Test [10] shares this target. Kind of test: SPR; Biacore 8K, C1 chip (flat); mAb captured on amine-coupled goat anti-human IgG Fc, PD-1-His monomer as analyte (100 nM top, 3-fold dilutions), 1200 s dissociation; 25 C, HBS-EP+ pH 7.4; 1:1 Langmuir fit, apparent constants; 8 mAbs measured in two independent experiments. The source holds these as a separate data set.
Target sequence in this assay (Q15116 25-168): as above
The target is the same in test [11]. Kind of test: SPR; Biacore 8K, CMD-200M chip (3D-hydrogel); mAb captured on amine-coupled goat anti-human IgG Fc, PD-1-His monomer as analyte (100 nM top, 3-fold dilutions), 1200 s dissociation; 25 C, HBS-EP+ pH 7.4; 1:1 Langmuir fit, apparent constants.
Target sequence in this assay (Q15116 25-168): as above
Test [12] has the same target. Put plainly: SPR; Biacore 8K, CMD-P chip (flat); mAb captured on amine-coupled goat anti-human IgG Fc, PD-1-His monomer as analyte (100 nM top, 3-fold dilutions), 1200 s dissociation; 25 C, HBS-EP+ pH 7.4; 1:1 Langmuir fit, apparent constants.
Target sequence in this assay (Q15116 25-168): as above

T1 sequence (Q15116 25-168): as above
T2 sequence (Q15116 whole entry, looked up, tested part not stated): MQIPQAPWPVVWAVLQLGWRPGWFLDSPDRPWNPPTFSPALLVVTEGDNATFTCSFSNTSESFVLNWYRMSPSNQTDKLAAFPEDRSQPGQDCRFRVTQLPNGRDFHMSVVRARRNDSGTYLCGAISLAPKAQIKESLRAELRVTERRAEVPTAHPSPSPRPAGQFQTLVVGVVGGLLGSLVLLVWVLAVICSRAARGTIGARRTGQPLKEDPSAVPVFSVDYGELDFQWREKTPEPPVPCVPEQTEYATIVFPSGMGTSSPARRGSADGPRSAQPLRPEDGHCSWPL

B1: mAb23 (analog of cemiplimab) (antibody, V domains shown)
VH: EVQLLESGGVLVQPGGSLRLSCAASGFTFSNFGMTWVRQAPGKGLEWVSGISGGGRDTYFADSVKGRFTISRDNSKNTLYLQMNSLKGEDTAVYYCVKWGNIYFDYWGQGTLVTVSS
VL: DIQMTQSPSSLSASVGDSITITCRASLSINTFLNWYQQKPGKAPNLLIYAASSLHGGVPSRFSGSGSGTDFTLTIRTLQPEDFATYYCQQSSNTPFTFGPGTVVDFR
notes: VH; IgG4 heavy-chain constant region with stabilizing 226CPPC hinge; VL; IgG4 analog; source: HEK293 suspension cells, cotransfected, purified (Protein A)
By koff is commonly meant a measure of how fast the partners let go of each other. Broadly, the kon is a measure of how fast the partners come together. Take B1: the Kd in test [1] worked out at 1900 pM; in [2], 220 pM; in [3] it was 130 pM; in [4], 1500 pM; in test [5] it was 820 pM. In test [4], the koff came out at 0.00028 s⁻¹. Further, the on-rate (kon) in test [4] came to 190000 M⁻¹ s⁻¹.

B2: mAb23 (analog of cemiplimab) (antibody, V domains shown)
VH: EVQLLESGGVLVQPGGSLRLSCAASGFTFSNFGMTWVRQAPGKGLEWVSGISGGGRDTYFADSVKGRFTISRDNSKNTLYLQMNSLKGEDTAVYYCVKWGNIYFDYWGQGTLVTVSS
VL: DIQMTQSPSSLSASVGDSITITCRASLSINTFLNWYQQKPGKAPNLLIYAASSLHGGVPSRFSGSGSGTDFTLTIRTLQPEDFATYYCQQSSNTPFTFGPGTVVDFR
notes: VH; IgG4 heavy-chain constant region with a stabilizing 226CPPC hinge modification; IgG4; isotype-matched analog made from published variable regions, not the clinical molecule; source: HEK293 suspension cells, cotransfected, purified (Protein A)
B2: in test [6], the Kd was determined as 1520 pM, the koff was determined as 0.000297 s⁻¹ and the kon turned out to be 195000 M⁻¹ s⁻¹. In [7], the koff is 0.00011 s⁻¹ and the on-rate (kon) is 502000 M⁻¹ s⁻¹.

B3: mAb04 (antibody, V domains shown)
VH: QVQLVQSGAEVKKPGASVKVSCKASGYSFTSYWMNWVRQAPGQGLEWIGVIHPSDSETWLDQKFKDRVTITVDKSTSTAYMELSSLRSEDTAVYYCAREHYGTSPFAYWGQGTLVTVSS
VL: EIVLTQSPATLSLSPGERATLSCRASESVDNYGMSFMNWFQQKPGQPPKLLIHAASNQGSGVPSRFSGSGSGTDFTLTISSLEPEDFAVYFCQQSKEVPYTFGGGTKVEIK
notes: IgG4; also called analog of retifanlimab; retifan; source: HEK293 suspension cells, cotransfected, purified (Protein A)
With B3, the Kd in test [8] amounted to 297 pM; in test [9] it was 717 pM; in [10], 307 pM; in test [11] it was 582 pM; in test [12], 387 pM. The off-rate (koff) in test [8] was 0.000277 s⁻¹; in [9], 0.000235 s⁻¹; in test [10], 0.000269 s⁻¹; in test [11] it was 0.000253 s⁻¹; in test [12], 0.000235 s⁻¹. Besides, the kon turned out to be 933000 M⁻¹ s⁻¹ in [8]; 328000 M⁻¹ s⁻¹ in [9]; 877000 M⁻¹ s⁻¹ in test [10]; 435000 M⁻¹ s⁻¹ in test [11]; 608000 M⁻¹ s⁻¹ in [12].

B4: mAb03 (analog of tislelizumab) (antibody, V domains shown)
VH: QVQLQESGPGLVKPSETLSLTCTVSGFSLTSYGVHWIRQPPGKGLEWIGVIYADGSTNYNPSLKSRVTISKDTSKNQVSLKLSSVTAADTAVYYCARAYGNYWYIDVWGQGTTVTVSS
VL: DIVMTQSPDSLAVSLGERATINCKSSESVSNDVAWYQQKPGQPPKLLINYAFHRFTGVPDRFSGSGYGTDFTLTISSLQAEDVAVYYCHQAYSSPYTFGQGTKLEIK
notes: as for B1
As to B4, the Kd in [1] was 260 pM; in test [2] it was 38 pM; in [3], 24 pM; in test [4] it was less than 99 pM; in test [5], 130 pM. For the same molecule, in test [4], the koff was less than 4.3e-05 s⁻¹. Also, the association rate constant (kon) in [4] stood at 430000 M⁻¹ s⁻¹.

B5: mAb03 (analog of tislelizumab) (antibody, V domains shown)
VH: QVQLQESGPGLVKPSETLSLTCTVSGFSLTSYGVHWIRQPPGKGLEWIGVIYADGSTNYNPSLKSRVTISKDTSKNQVSLKLSSVTAADTAVYYCARAYGNYWYIDVWGQGTTVTVSS
VL: DIVMTQSPDSLAVSLGERATINCKSSESVSNDVAWYQQKPGQPPKLLINYAFHRFTGVPDRFSGSGYGTDFTLTISSLQAEDVAVYYCHQAYSSPYTFGQGTKLEIK
notes: as for B2
Consider B5, for which, in [6], the Kd was less than 100 pM, the koff is less than 4.27e-05 s⁻¹ and the kon is 432000 M⁻¹ s⁻¹. In test [7], the off-rate constant (koff) was 6.82e-05 s⁻¹ and the on-rate constant (kon) is 1.8e+06 M⁻¹ s⁻¹.

B6: mAb16 (analog of dostarlimab) (antibody, V domains shown)
VH: EVQLLESGGGLVQPGGSLRLSCAASGFTFSSYDMSWVRQAPGKGLEWVSTISGGGSYTYYQDSVKGRFTISRDNSKNTLYLQMNSLRAEDTAVYYCASPYYAMDYWGQGTTVTVSS
VL: DIQLTQSPSFLSAYVGDRVTITCKASQDVGTAVAWYQQKPGKAPKLLIYWASTLHTGVPSRFSGSGSGTEFTLTISSLQPEDFATYYCQHYSSYPWTFGQGTKLEIK
notes: as for B1
As for B6, the Kd worked out at 1700 pM in test [1]; 200 pM in test [2]; 180 pM in test [3]; 1600 pM in test [4]; 870 pM in test [5]. For the same molecule, the koff in test [4] was determined as 0.00039 s⁻¹. Further, the association rate constant (kon) in test [4] turned out to be 240000 M⁻¹ s⁻¹.

B7: mAb16 (analog of dostarlimab) (antibody, V domains shown)
VH: EVQLLESGGGLVQPGGSLRLSCAASGFTFSSYDMSWVRQAPGKGLEWVSTISGGGSYTYYQDSVKGRFTISRDNSKNTLYLQMNSLRAEDTAVYYCASPYYAMDYWGQGTTVTVSS
VL: DIQLTQSPSFLSAYVGDRVTITCKASQDVGTAVAWYQQKPGKAPKLLIYWASTLHTGVPSRFSGSGSGTEFTLTISSLQPEDFATYYCQHYSSYPWTFGQGTKLEIK
notes: as for B2
For the molecule B7, in [6], the Kd was 1670 pM, the off-rate (koff) was 0.000421 s⁻¹ and the kon was 252000 M⁻¹ s⁻¹. In [7], the koff was 0.00013 s⁻¹ and the kon is 639000 M⁻¹ s⁻¹.
